From IntAct's records for PubMed 19366670

B1: 10 kDa anti-sigma factor (Enterobacteria phage T4), P32267 (parent)
chain: MNKNIDTVREIITVASILIKFSREDIVENRANFIAFLNEIGVTHEGRKLNQNSFRKIVSELTQEDKKTLIDEFNEGFEGVYRYLEMYTNK

Variants of: B1
Details: with rpob_ecoli rpoB

Variant	effect of a mutation on the interaction
MNKNIDTVREIITVASILIKFSREDIVENRANFIAFLNEIGVTHEGRKLNQNSFRKIVSELTQEDKKTLIDEFDEGFEGVYRYLEMYTNK [N74D]	decreasing interaction strength
